# Results from PMC8002388.
# Target: light-activated rhodopsin in rod outer segments (ROS) (UniProt P02699)
# UniProt P02699, sequence (P02699 whole entry): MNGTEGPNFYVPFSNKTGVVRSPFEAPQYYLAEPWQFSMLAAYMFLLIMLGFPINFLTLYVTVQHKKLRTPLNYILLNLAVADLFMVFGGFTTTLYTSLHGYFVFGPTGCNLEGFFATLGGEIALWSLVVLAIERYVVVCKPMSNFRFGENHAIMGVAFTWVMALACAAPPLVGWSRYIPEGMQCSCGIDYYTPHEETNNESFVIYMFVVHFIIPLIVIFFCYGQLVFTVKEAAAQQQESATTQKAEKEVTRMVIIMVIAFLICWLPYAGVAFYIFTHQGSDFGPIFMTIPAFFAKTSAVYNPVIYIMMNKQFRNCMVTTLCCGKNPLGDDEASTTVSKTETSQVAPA
row,Substance,normalized Vmax of rhodopsin (ROS) phosphorylation when [ATP] is varied [A.U.]
1,C-terminally H6-tagged bovine GRK2 E532A (S670A background) (from UniProt P21146 1-689) (enzyme),0.8
2,C-terminally H6-tagged bovine GRK2 L33N (S670A background) (from UniProt P21146 1-689) (enzyme),1
3,C-terminally H6-tagged bovine GRK2 L536N (S670A background) (from UniProt P21146 1-689) (enzyme),1.2

# Now from value to substance:
row,normalized Vmax of rhodopsin (ROS) phosphorylation when [ATP] is varied [A.U.],Substance
1,0.9,C-terminally H6-tagged bovine GRK2 E36A (S670A background) (from UniProt P21146 1-689) (enzyme)
2,0.8,C-terminally H6-tagged bovine GRK2 L547N (S670A background) (from UniProt P21146 1-689) (enzyme)
3,1.3,"C-terminally H6-tagged bovine GRK2, wild type (S670A background) (from UniProt P21146 1-689) (enzyme)"

# Target: light-activated rhodopsin in rod outer segments (ROS) (UniProt P02699)
# Remark: another data set of the same source
row,Substance,"Km for rhodopsin, phosphorylation of light-activated rhodopsin in ROS (50 nM-5 µM) by 20 nM GRK2 with 150 nM human Gβ1γ2 and 5 µM ATP [µM]"
1,C-terminally H6-tagged bovine GRK2 E532A (S670A background) (from UniProt P21146 1-689) (enzyme),0.14
2,C-terminally H6-tagged bovine GRK2 L33N (S670A background) (from UniProt P21146 1-689) (enzyme),0.36
3,C-terminally H6-tagged bovine GRK2 L536N (S670A background) (from UniProt P21146 1-689) (enzyme),0.18

# More lines, now with the values ahead:
row,"Km for rhodopsin, phosphorylation of light-activated rhodopsin in ROS (50 nM-5 µM) by 20 nM GRK2 with 150 nM human Gβ1γ2 and 5 µM ATP [µM]",Substance
1,0.13,C-terminally H6-tagged bovine GRK2 E36A (S670A background) (from UniProt P21146 1-689) (enzyme)
2,0.17,C-terminally H6-tagged bovine GRK2 L547N (S670A background) (from UniProt P21146 1-689) (enzyme)
3,0.24,"C-terminally H6-tagged bovine GRK2, wild type (S670A background) (from UniProt P21146 1-689) (enzyme)"
